How the values were obtained:
[1] = oral administration, human C5aR1 transgenic mice; cited from earlier work
C5aR1 = molecular target: T1, C5aR1 (Homo sapiens, UniProt P21730); conditions: cited from earlier work
T1 sequence (P21730 1-350): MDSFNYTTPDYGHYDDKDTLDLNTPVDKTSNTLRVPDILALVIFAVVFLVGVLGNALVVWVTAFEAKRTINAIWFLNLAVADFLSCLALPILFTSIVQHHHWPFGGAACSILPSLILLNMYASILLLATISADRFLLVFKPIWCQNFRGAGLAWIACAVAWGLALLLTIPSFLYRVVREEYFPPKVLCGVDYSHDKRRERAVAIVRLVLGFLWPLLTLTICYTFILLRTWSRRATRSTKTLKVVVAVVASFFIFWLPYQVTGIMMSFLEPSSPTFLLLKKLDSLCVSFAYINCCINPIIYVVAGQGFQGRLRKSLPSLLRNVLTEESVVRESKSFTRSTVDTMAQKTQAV

[2] = system: control cells that were mock transfected; experiment: Cell surface binding (flow cytometry), mock transfected Expi293 control cells; conditions: staining with 100 nM of antibody
Protocol: (§1) Follow up screening to ensure specificity was performed by measuring cell surface binding to cells expressing, for example, human C5aR1, human C5aR2, mouse C5aR1, and control cells that were mock transfected. Briefly, cell surface binding was performed on various C5aR1 expressing cell lines (transiently expressed Expi293 cells, stable C5aR1-U937 cells, and neutrophils isolated from whole blood). Briefly, a titration of antibody diluted in flow buffer (1×PBS with 2% fetal bovine serum) was incubated with cells for 1 hour at 4° C. Cells were washed twice with flow buffer. Anti-human-APC secondary antibody was diluted 1:400 in flow buffer and incubated with cells for 30 minutes. Cells were washed twice with flow buffer and resuspended in 100 μL of flow buffer. Fluorescence was measured using the iQue Screen Plus flow cytometer.

[3] = molecular target: T2, human C5aR1 transiently expressed on the surface of Expi293 cells (Homo sapiens, UniProt P21730, K279N); experiment: Cell surface binding (flow cytometry), Expi293 cells transiently expressing human C5aR1; conditions: staining with 100 nM of antibody
T2 construct: expressed in transfected cells; host or cells: Expi293 cells, transient
T2 sequence (P21730 with tags, fused parts or gaps K279N limits assumed): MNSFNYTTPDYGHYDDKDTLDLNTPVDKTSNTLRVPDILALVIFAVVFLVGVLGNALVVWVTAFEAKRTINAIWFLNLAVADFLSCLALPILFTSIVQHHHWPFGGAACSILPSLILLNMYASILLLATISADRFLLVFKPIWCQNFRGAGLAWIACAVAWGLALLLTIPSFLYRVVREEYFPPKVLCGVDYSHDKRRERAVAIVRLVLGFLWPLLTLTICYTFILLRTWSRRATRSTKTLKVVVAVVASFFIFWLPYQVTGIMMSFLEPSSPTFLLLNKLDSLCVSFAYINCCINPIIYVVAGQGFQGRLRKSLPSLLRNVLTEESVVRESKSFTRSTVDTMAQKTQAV
Protocol: as §1

Cc1ccc(NC(=O)[C@H]2CCCN(C(=O)c3c(C)cccc3F)[C@H]2c2ccc(NC3CCCC3)cc2)cc1C(F)(F)F [Avacopan, avacopan]
severity of anti-MPO NCGN [1]: reduced the severity of anti-MPO NCGN

B1: C5a: complement component 5a, agonist of C5aR1 (protein, UniProt P01031 678-751, looked up)
C5a anaphylatoxin: TLQKKIEEIAAKYKHSVVKKCCYDGACVNNDETCEQRAARISLGPRCIKAFTECCVVASQLRANISHKDMQLGR
modifications: C5a anaphylatoxin
notes: complement component 5a, agonist of C5aR1
on rate for C5aR1 (C5aR1): about 4.8e8 M^−1min^−1

B2: Clone_11v2 (antibody, V domains shown)
VH: QVQLQQSGPELVKPGASVKISCKASGYSFSSSWMNWVKQRPGKGLEWIGRISPGDGDTRYSGKFKGKATLTADKSSSTAYMQVTSLTSEDSAIYFCVRFLITSTRYVMDYWGQGTTVTVSS
VL: DVVMTQTPLSLPVSLGDQASISCRSSQSLVHSNGNTYLHWYLQKPGQSPKLLIYKVSNRFSGVPDRFSGSGSGTDFTLKISRVEAEDLGVYFCSQSTLVPPTFGGGTKLEIK
Cell surface binding, Mock transfection, geometric mean fluorescent intensity [2]: 4,976 Clone_454
Cell surface binding, Human C5aR1, geometric mean fluorescent intensity [3]: 310,187
